Among the data in US20030032587A1, “Urocortin peptides” (The Salk Institute for Biological Studies, priority 1995, published 2003) are binding result and Ki values, retold here.

Where no end group is shown, it is not given here.

Experiment [1] has as its target T1, human CRF binding protein (human, UniProt P24387 25-322).
T1 construct: also called hCRF-BP; CRF-BP
T1 sequence (looked up): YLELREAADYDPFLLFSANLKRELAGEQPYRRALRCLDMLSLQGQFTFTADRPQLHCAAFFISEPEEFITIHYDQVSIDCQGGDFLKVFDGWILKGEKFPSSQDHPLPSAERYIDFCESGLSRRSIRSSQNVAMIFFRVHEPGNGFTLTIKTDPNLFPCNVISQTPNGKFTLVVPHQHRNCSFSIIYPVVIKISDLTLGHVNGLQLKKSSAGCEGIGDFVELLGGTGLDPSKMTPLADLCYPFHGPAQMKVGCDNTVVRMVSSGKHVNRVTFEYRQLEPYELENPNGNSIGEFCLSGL
The experiment can be described thus: competitive hCRF-BP ligand binding assay with [125I-DTyr0]hCRF; reference peptide. As for the experimental part: After incubating with the primary and secondary antisera for 30 minutes each, 1 ml of saline wash is added, and the test tubes are centrifuged at 2000× g for 20 minutes at 4° C. Precipitates are counted in a gamma counter. Inhibitory binding affinity constant (Kᵢ) values are determined using parameters calculated by the LIGAND computer program, Munson et al., Anal. Biochem., 107, 220 (1980), and a Vax/VMS computer system.

The target in experiment [2] is human CRF-R2β, stably transfected CHO cells (human) (UniProt Q13324). Kind of experiment: competitive displacement of [125I-Tyr0]Ucn from stably transfected CHO cells expressing human CRF-R2β; 95% confidence limits in brackets. Background: Displacement assays read how much labelled ligand stays bound in the presence of the test substance.
The target in experiment [3] is T2, human CRF-R1 (cloned hCRF-R1), stably expressed in CHO cells (human, UniProt P34998 24-415).
T2 construct: whole, on cells; also called hCRF-RA
T2 sequence (looked up): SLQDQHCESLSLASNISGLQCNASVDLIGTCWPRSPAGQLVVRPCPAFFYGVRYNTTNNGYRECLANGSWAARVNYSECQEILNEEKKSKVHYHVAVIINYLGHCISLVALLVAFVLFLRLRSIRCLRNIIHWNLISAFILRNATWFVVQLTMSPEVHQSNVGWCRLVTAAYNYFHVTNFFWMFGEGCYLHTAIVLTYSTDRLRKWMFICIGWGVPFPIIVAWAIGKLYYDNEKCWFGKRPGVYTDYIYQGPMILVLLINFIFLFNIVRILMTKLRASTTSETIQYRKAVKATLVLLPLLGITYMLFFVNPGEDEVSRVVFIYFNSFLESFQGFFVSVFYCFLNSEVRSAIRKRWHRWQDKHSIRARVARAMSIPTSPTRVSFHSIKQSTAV
The experiment can be described thus: competitive displacement of 125I-(Nle21,Tyr32) ovine CRF from CHO cells stably expressing hCRF-R1; LIGAND program, 95% confidence limits in brackets. As for the experimental part: Binding assays with cells expressing human CRF-R1 are carried out as described in the Chen et al. P.N.A.S., supra.

In experiment [4] the target is T1, human CRF binding protein. Kind of experiment: competitive hCRF-BP ligand binding assay with 125I[Nle21,Tyr32]-oCRF.

DLTFHLLREVLEMARAEQLAQQAHS [hCRF(9-33)]: the binding result in experiment [1] is listed as “binds”.
For orientation: Ki means a dissociation constant, usually derived from enzyme kinetics or from competition with a known ligand. A lower Ki goes with a stronger hold on the target. In the case of NDDPPISIDLTFHLLRNMIEMARIENEREQAGLNRKYLDEV-NH2 (also called sfUI; suckerfishUI) [suckerfish urotensin I], the figures for the Ki in experiment [2] and in experiment [3] were 3 nM and ~0.43 nM, respectively. Also, the binding result in experiment [4] was “binds”.
